In patent US20080206254A1 (LIFE SCIENCES RESEARCH PARTNERS VZW, published 2008):
Where a chain is given by its changes, count along the chain named.

Key:
[1] = biological target: human Factor VIII (FVIII) (human) (UniProt P00451); assay: cell-based or functional assay
[2] = biological target: human Factor VIII (FVIII) (human) (UniProt P00451); assay: SPR (BIAcore), BOIIB2 immobilised on a CM5 chip, FVIII in HBS as analyte
[3] = biological target: T1, A2 domain residues 379-546 of FVIII with mutation R484A (human, UniProt P00451 398-565, 35S-methionine labelled); assay: immunoprecipitation of 35S-labelled polypeptide on BOIIB2-Protein A Sepharose
T1 construct: the text lists R484A; Y487A; not shown: cmyc (9E10) tag
T1 sequence: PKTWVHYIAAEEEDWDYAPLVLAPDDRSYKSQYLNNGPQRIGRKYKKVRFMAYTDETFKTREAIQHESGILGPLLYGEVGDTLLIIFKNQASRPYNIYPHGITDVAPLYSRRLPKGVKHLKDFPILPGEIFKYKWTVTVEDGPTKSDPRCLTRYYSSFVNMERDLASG
Protocol: (§1) For fragments of FVIII of less than 15 amino acids a tag sequence was added including ubiquitin and/or T7 for recognition by specific anti-tag antibodies, together with a complementary sequence of cysteines for S labeling. Polypeptide encoding FVIII fragments were produced in TNT coupled Reticulocyte Lysate Systems (Promega) according to manufacturer's instructions. Immunoprecipitation of transcribed genes was carried out as follows. Dilutions of samples containing specific antibodies were mixed to 40 μl of protein A Sepharose (Pharmacia) in 500 μl of an appropriate buffer and the mixture gently rocked for 1 hour at 4° C. Unbound antibodies are eliminated by a series of centrifugation and washings. The complex of antibody-protein A Sepharose is resuspended in 300 μl of buffer supplemented by 3 μl of in-vitro L-(³⁵S) methionine-labeled FVIII polypeptides for an incubation at 4° C. for 2 hours. Bound antigen/antibody complexes are eluted from the beads by boiling for 3 minutes in 30 μl of denaturing sample buffer and the radioactivity counted. A second aliquot is analyzed by SDS-PAGE and visualized by autoradiography. […] This system includes a combined transcription-translation provided by rabbit reticulocytes. […] Polypeptides are radiolabeled by addition of ³⁵S-methionine in the reaction mixture. BOIIB2 antibody is incubated with a Protein-A Sepharose, washed and resuspended before addition of one of the radiolabeled polypeptides. The suspension is incubated for 90 minutes at room temperature, washed and the labeled polypeptide eluted from Sepharose beads by addition of a sodium-dodecylsulfate containing buffer.

[4] = biological target: T2, A2 domain residues 379-546 of FVIII with mutation Y487A (human, UniProt P00451 398-565, 35S-methionine labelled); assay: as above
T2 construct: Read as one of four single mutants; see the note of m4; not shown: cmyc (9E10) tag
T2 sequence: T1 sequence with A106R, Y109A
Protocol: as §1

[5] = biological target: T3, A2 domain residues 379-546 of FVIII with mutation R489A (human, UniProt P00451 398-565, 35S-methionine labelled); assay: as above
T3 construct: Read as one of four single mutants; see the note of m4; not shown: cmyc (9E10) tag
T3 sequence: T1 sequence with A106R, R111A
Protocol: as §1

[6] = biological target: T4, A2 domain residues 379-546 of FVIII with mutation P492A (human, UniProt P00451 398-565, 35S-methionine labelled); assay: as above
T4 construct: Read as one of four single mutants; see the note of m4; not shown: cmyc (9E10) tag
T4 sequence: T1 sequence with A106R, P114A
Protocol: as §1

Chain of human Factor VIII (FVIII) (human) (P00451 20-2351): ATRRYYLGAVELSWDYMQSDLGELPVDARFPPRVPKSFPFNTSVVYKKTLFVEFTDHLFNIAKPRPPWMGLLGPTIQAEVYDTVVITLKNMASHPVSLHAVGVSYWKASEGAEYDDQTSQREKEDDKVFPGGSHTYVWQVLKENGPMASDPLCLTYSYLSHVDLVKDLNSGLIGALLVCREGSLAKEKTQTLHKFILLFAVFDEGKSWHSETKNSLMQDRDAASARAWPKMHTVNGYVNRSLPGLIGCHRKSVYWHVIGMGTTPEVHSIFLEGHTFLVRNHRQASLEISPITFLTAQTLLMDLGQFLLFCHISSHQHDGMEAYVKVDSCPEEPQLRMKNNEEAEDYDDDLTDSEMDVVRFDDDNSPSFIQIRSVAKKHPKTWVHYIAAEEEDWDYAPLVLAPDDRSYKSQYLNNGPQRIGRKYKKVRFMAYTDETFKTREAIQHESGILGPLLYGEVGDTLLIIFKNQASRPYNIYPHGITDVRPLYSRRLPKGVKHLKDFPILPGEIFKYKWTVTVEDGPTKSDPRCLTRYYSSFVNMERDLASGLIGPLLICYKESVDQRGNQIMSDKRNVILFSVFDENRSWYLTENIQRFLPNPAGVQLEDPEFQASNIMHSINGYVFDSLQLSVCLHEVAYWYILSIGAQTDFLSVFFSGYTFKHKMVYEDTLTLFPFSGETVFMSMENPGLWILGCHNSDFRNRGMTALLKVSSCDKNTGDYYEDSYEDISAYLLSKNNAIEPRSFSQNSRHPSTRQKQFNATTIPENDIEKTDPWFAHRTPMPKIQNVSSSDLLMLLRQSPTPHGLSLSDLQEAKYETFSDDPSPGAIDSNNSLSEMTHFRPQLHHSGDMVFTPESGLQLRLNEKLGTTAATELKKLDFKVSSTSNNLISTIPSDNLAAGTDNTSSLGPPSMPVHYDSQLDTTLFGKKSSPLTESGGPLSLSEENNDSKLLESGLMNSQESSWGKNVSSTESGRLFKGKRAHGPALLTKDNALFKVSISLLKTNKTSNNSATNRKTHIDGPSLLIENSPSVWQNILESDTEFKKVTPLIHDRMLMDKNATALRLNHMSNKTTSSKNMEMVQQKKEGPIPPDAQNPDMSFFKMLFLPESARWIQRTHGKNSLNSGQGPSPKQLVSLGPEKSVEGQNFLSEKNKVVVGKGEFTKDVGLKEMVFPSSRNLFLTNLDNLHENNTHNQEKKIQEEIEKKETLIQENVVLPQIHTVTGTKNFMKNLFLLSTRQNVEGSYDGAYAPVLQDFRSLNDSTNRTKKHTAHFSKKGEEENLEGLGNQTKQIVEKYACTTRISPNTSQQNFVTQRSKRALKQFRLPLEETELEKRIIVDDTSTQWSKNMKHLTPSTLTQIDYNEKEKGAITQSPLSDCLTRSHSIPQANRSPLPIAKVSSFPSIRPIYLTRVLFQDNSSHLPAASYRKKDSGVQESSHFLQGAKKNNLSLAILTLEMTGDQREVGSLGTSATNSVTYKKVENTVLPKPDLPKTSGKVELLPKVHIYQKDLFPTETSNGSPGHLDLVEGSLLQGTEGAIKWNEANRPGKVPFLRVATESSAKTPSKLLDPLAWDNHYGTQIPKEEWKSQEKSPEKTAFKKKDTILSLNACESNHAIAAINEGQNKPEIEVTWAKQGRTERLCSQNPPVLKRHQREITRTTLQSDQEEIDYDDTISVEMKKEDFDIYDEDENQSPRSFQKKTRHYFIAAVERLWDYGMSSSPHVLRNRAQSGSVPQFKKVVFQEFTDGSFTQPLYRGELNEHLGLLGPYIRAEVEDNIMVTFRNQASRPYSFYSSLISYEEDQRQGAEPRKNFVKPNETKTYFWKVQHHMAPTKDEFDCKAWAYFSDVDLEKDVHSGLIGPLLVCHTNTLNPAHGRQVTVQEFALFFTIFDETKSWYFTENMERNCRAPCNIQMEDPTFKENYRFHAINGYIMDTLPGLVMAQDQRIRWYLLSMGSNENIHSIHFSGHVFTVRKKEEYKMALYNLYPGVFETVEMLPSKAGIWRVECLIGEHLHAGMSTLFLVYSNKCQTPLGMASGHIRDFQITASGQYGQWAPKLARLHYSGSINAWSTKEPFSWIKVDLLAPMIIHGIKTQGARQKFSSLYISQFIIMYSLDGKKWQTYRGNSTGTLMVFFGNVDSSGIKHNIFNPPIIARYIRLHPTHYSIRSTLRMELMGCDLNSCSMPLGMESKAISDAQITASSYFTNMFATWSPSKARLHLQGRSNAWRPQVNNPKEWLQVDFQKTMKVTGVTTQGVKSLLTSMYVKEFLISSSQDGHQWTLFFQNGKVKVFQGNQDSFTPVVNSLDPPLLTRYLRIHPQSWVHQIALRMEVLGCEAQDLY

Percentage of inhibition of FVIII in a chromogenic assay (thrombin-activated FVIII as cofactor of factor IXa in the conversion of factor X to factor Xa) [1]: 99% | koff [2]: 1e-08 s⁻¹ | binding result [3]: no binding | binding result [4]: no binding | binding result [5]: no binding | binding result [6]: no binding
B1: human monoclonal antibody BOIIB2, produced by the cell line deposited under accession number LMBP 6422CB at the BCCM (antibody, V domains shown)
VH: QVQLQESGPGLVKPSETLSLTCTVSGDSISDYYWSWIRQPPGKGLEWIGYFFYSGGSNYNPSLKSRVTMSVDTSKNQFSLKLGSVTAADTAVYYCARSQLRYYLDVWGQGTTVTVSS
VL: EIVLTQSPGTLSLSPGERATLSCRASQSVDSNYLAWYQQKPGQAPRVVIYGASNRATGIPDRFSGSGSGTEFTLTISRLDPEDFAVYYCQQYGSFFGQGTRLEIK
notes: VH4 (DP-71)/JH6c, VkappaIII/Jkappa5; also called BIIIB2
